Experimental data as given in PMC8428401.

Target: AAVhum.8 capsid (adeno-associated virus 8 (nonhuman primate isolate)) (UniProt Q8JQF8)
Assay: cryo-EM structure; purified AAVhum.8 vectors vitrified on Quantifoil grids; Titan Krios 300 kV; capsid reconstructed in cisTEM; 60-mer VP3 model refined against the map

Substance: AAVhum.8 capsid (from UniProt Q8JQF8 218-738) (complex)
- stoichiometry N: 60
